{
  "source": "paper PMC5183593",
  "about": "“Conformational Rigidity within Plasticity Promotes Differential Target Recognition of Nerve Growth Factor” (Frontiers in Molecular Biosciences, 2016)",
  "proteins": {"B1": {"name": "recombinant mouse Nerve Growth Factor (mNGF) (natural protein, UniProt P01139 122-241, looked up)", "chain": "SSTHPVFHMGEFSVCDSVSVWVGDKTTATDIKGKEVTVLAEVNINNSVFRQYFFETKCRASNPVESGCRGIDSKHWNSYCTTTHTFVKALTTDEKQAAWRFIRIDTACVCVLSRKATRRG", "modifications": "15N or 15N-13C isotope labeled", "notes": "Nerve Growth Factor (beta-NGF), mouse, mature form cut from the precursor proNGF; 118 amino acids per protomer (S1 to residue 118), non-covalent homodimer of 26 kDa; numbers count on: the mature protein; Expression host and the details of the construct are in the Supplementary Information and in Paoletti et al., 2011; also called mouse NGF"}},
  "molecular_target": "the molecule itself",
  "experiment": "NMR relaxation (T1, T2, heteronuclear NOE); 15N relaxation at 600 MHz and 30°C; correlation time 14.8 ns",
  "data": [
    {"protein": "B1", "values": [
      {"measurement": "stoichiometry N", "value": 2}
    ]}
  ]
}
